Assay results taken from patent publication US20200055939A1 (Genentech, published 2020).

Tests used:
[1] = target: T1, MICA*008 on MEL-JUSO cells (human, UniProt Q29983 24-317); experiment: cell-based or functional assay
T1 chain: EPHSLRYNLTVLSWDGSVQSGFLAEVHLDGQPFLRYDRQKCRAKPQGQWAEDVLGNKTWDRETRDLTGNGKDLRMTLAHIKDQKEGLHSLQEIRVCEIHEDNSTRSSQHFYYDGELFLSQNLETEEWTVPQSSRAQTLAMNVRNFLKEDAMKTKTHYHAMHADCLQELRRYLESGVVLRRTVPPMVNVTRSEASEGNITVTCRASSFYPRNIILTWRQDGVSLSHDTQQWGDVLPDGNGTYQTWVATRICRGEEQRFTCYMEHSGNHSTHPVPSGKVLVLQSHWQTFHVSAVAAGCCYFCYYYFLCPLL

[2] = target: T2, MICA*004 on HCC1534 cells (human, UniProt Q29983 24-383); experiment: cell-based or functional assay
[3] = target: MICB*005 on HCC1534 cells (human); experiment: cell-based or functional assay
MICA*002 on PANC-1 cells = MICA*002 on PANC-1 cells (human, UniProt Q29983 24-383); experiment: cell-based or functional assay
[4] = target: T1, MICA*008 on MEL-JUSO cells; experiment: cell-based or functional assay
[5] = target: T2, MICA*004 on HCC1534 cells; experiment: cell-based or functional assay; remark: listed apart in the source
[6] = target: MICB*005 on HCC1534 cells (human); experiment: cell-based or functional assay; remark: listed apart in the source
huMICA*002 alpha 3-his [7] = target: T3, huMICA*002 alpha 3-his (human); experiment: SPR, Biacore 8K, antibody on Protein A chip
T3 construct: whole construct entry: GS, alpha 3 domain, GNS, His8; also called MICA002.His; MICA*002 alpha3 construct
T3 chain: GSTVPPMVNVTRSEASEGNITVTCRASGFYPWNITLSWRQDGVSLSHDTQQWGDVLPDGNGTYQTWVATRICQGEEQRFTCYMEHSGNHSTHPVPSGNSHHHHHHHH

huMICA*004 alpha 3-his [8] = target: T4, huMICA*004 alpha 3-his (human); experiment: SPR, Biacore 8K, antibody on Protein A chip
T4 construct: whole construct entry: GS, alpha 3 domain, GNS, His8; also called MICA004.His; MICA*004 alpha3 construct
T4 chain: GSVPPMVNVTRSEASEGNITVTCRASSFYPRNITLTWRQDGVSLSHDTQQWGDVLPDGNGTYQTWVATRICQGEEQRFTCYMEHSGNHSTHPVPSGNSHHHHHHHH

huMICA*008 alpha 3-his [9] = target: T5, huMICA*008 alpha 3-his (human); experiment: SPR, Biacore 8K, antibody on Protein A chip
T5 construct: whole construct entry: GS, alpha 3 domain (Thr204-Ser297), GNS, His8; also the construct of the FPOP experiment; also called MICA008.His; MICA*008 alpha3 construct
T5 chain: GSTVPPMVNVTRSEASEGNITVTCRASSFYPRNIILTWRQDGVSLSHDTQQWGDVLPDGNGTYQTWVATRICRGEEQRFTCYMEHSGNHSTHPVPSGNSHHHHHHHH

huMICB*005 alpha 3-his [10] = target: T6, huMICB*005 alpha 3-his (human); experiment: SPR, Biacore 8K, antibody on Protein A chip
T6 construct: whole construct entry: GS, alpha 3 domain, GNS, His8; also called MICB005.His; MICB*005 alpha3 construct
T6 chain: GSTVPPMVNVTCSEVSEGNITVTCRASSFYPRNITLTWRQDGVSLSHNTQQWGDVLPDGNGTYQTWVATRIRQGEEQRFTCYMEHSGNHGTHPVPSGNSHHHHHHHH

huMICA*002 alpha 3-his [11] = target: T3, huMICA*002 alpha 3-his; experiment: 'Affinity (nM)' row of Table 17; method not stated
huMICA*004 alpha 3-his [12] = target: T4, huMICA*004 alpha 3-his; experiment: 'Affinity (nM)' row of Table 17; method not stated
huMICB*005 alpha 3-his [13] = target: T6, huMICB*005 alpha 3-his; experiment: 'Affinity (nM)' row of Table 17; method not stated
huMICA*008 alpha 3-his [14] = target: T5, huMICA*008 alpha 3-his; experiment: 'Affinity (nM)' row of Table 17; method not stated; MICA*008 allele (column of the MEL-JUSO shedding assay)

B1: 1D5 (antibody, V domains shown)
VH: EIQLQQSGPELVKPGASVKVSCKASGYAFTSQNIYWVKQSHGKSLEWIGYIEPYNVVPMYNPKFKGKATLTVDKSSSSAYIHLNSLTSEDSAIYYCARSGSSNFDYWGQGTTLTVSS
VL: EIILTQSPTTMAASPGEKITITCSASSSISSHYLHWYQQKSGFSPKLLIYRTSNLASGVPARFSGSGSGTSYSLTIGTMEAEDVATYYCQQGSSLPLTFGAGTKVEIK
notes: mouse variable domains; also called anti-MIC 1D5
IC50 (mg/mL), cell shedding assay [1]: 0.00823 mg/mL
Max inhibition, cell shedding assay [1]: 81%
IC50 (mg/mL), cell shedding assay [2]: 0.0247 mg/mL
Max inhibition, cell shedding assay [2]: 70%
IC50 (mg/mL), cell shedding assay [3]: 0.0293 mg/mL
Max inhibition, cell shedding assay [3]: 52%
IC50 (mg/mL), cell shedding assay (MICA*002 on PANC-1 cells): 0.0291 mg/mL
Max inhibition, cell shedding assay (MICA*002 on PANC-1 cells): 53%
% Inhibition [4]: 69%
% Inhibition [5]: 52%
% Inhibition [6]: 49%
Kd (huMICA*002 alpha 3-his [7]): 830 pM
Kd (huMICA*004 alpha 3-his [8]): 630 pM
Kd (huMICA*008 alpha 3-his [9]): 610 pM
Kd (huMICB*005 alpha 3-his [10]): 950 pM
Kd (huMICA*002 alpha 3-his [11]): 820 pM
Kd (huMICA*004 alpha 3-his [12]): 560 pM
Kd (huMICB*005 alpha 3-his [13]): 2280 pM
Kd (huMICA*008 alpha 3-his [14]): 540 pM
